Test results as given in the Human Domainome abundance scans (Beltran et al. 2025).
± gives the uncertainty stated by the source.

Assay: abundance fitness (aPCA) (normalised: wild type 0, dead -1); higher = more abundant; growth selection in yeast, the domain comes from the species named
Conditions: Homo sapiens

In order of falling abundance fitness:
1. Lipoamide acyltransferase component of branched-chain alpha-keto acid dehydrogenase complex, mitochondrial E190D, P11182  0.039 ± 0.064
2. Lipoamide acyltransferase component of branched-chain alpha-keto acid dehydrogenase complex, mitochondrial E203R, P11182  0.024 ± 0.037
3. Lipoamide acyltransferase component of branched-chain alpha-keto acid dehydrogenase complex, mitochondrial E203S, P11182  -0.007 ± 0.067
4. Lipoamide acyltransferase component of branched-chain alpha-keto acid dehydrogenase complex, mitochondrial E203K, P11182  -0.027 ± 0.055
5. Lipoamide acyltransferase component of branched-chain alpha-keto acid dehydrogenase complex, mitochondrial E190N, P11182  -0.032 ± 0.047
6. Lipoamide acyltransferase component of branched-chain alpha-keto acid dehydrogenase complex, mitochondrial E203A, P11182  -0.041 ± 0.042
7. Lipoamide acyltransferase component of branched-chain alpha-keto acid dehydrogenase complex, mitochondrial E203C, P11182  -0.053 ± 0.075
8. Lipoamide acyltransferase component of branched-chain alpha-keto acid dehydrogenase complex, mitochondrial E190Q, P11182  -0.069 ± 0.059
9. Lipoamide acyltransferase component of branched-chain alpha-keto acid dehydrogenase complex, mitochondrial E190S, P11182  -0.079 ± 0.046
10. Lipoamide acyltransferase component of branched-chain alpha-keto acid dehydrogenase complex, mitochondrial E190H, P11182  -0.086 ± 0.072
11. Lipoamide acyltransferase component of branched-chain alpha-keto acid dehydrogenase complex, mitochondrial E203D, P11182  -0.089 ± 0.059
12. Lipoamide acyltransferase component of branched-chain alpha-keto acid dehydrogenase complex, mitochondrial E203G, P11182  -0.089 ± 0.04
13. Lipoamide acyltransferase component of branched-chain alpha-keto acid dehydrogenase complex, mitochondrial E190A, P11182  -0.093 ± 0.047
14. Lipoamide acyltransferase component of branched-chain alpha-keto acid dehydrogenase complex, mitochondrial E203Q, P11182  -0.104 ± 0.058
15. Lipoamide acyltransferase component of branched-chain alpha-keto acid dehydrogenase complex, mitochondrial E203T, P11182  -0.109 ± 0.087
16. Lipoamide acyltransferase component of branched-chain alpha-keto acid dehydrogenase complex, mitochondrial E190T, P11182  -0.119 ± 0.047
17. Lipoamide acyltransferase component of branched-chain alpha-keto acid dehydrogenase complex, mitochondrial E203H, P11182  -0.124 ± 0.059
18. Lipoamide acyltransferase component of branched-chain alpha-keto acid dehydrogenase complex, mitochondrial E203M, P11182  -0.127 ± 0.06
19. Lipoamide acyltransferase component of branched-chain alpha-keto acid dehydrogenase complex, mitochondrial D204N, P11182  -0.136 ± 0.4
20. Lipoamide acyltransferase component of branched-chain alpha-keto acid dehydrogenase complex, mitochondrial E190M, P11182  -0.147 ± 0.049
21. Lipoamide acyltransferase component of branched-chain alpha-keto acid dehydrogenase complex, mitochondrial E203P, P11182  -0.173 ± 0.059
22. Lipoamide acyltransferase component of branched-chain alpha-keto acid dehydrogenase complex, mitochondrial E203L, P11182  -0.176 ± 0.049
23. Lipoamide acyltransferase component of branched-chain alpha-keto acid dehydrogenase complex, mitochondrial E190K, P11182  -0.178 ± 0.056
24. Lipoamide acyltransferase component of branched-chain alpha-keto acid dehydrogenase complex, mitochondrial E190L, P11182  -0.186 ± 0.042
25. Lipoamide acyltransferase component of branched-chain alpha-keto acid dehydrogenase complex, mitochondrial E190W, P11182  -0.192 ± 0.046
26. Lipoamide acyltransferase component of branched-chain alpha-keto acid dehydrogenase complex, mitochondrial E190R, P11182  -0.199 ± 0.04
27. Lipoamide acyltransferase component of branched-chain alpha-keto acid dehydrogenase complex, mitochondrial E190C, P11182  -0.315 ± 0.12
28. Lipoamide acyltransferase component of branched-chain alpha-keto acid dehydrogenase complex, mitochondrial E190Y, P11182  -0.349 ± 0.05
29. Lipoamide acyltransferase component of branched-chain alpha-keto acid dehydrogenase complex, mitochondrial D197W, P11182  -0.387 ± 0.064
30. Lipoamide acyltransferase component of branched-chain alpha-keto acid dehydrogenase complex, mitochondrial E190G, P11182  -0.409 ± 0.038
31. Lipoamide acyltransferase component of branched-chain alpha-keto acid dehydrogenase complex, mitochondrial E203F, P11182  -0.409 ± 0.14
32. Lipoamide acyltransferase component of branched-chain alpha-keto acid dehydrogenase complex, mitochondrial E190F, P11182  -0.448 ± 0.076
33. Lipoamide acyltransferase component of branched-chain alpha-keto acid dehydrogenase complex, mitochondrial D204P, P11182  -0.455 ± 0.06
34. Lipoamide acyltransferase component of branched-chain alpha-keto acid dehydrogenase complex, mitochondrial E190I, P11182  -0.609 ± 0.08
35. Lipoamide acyltransferase component of branched-chain alpha-keto acid dehydrogenase complex, mitochondrial D197V, P11182  -0.728 ± 0.061
36. Lipoamide acyltransferase component of branched-chain alpha-keto acid dehydrogenase complex, mitochondrial D204E, P11182  -0.771 ± 0.1
37. Lipoamide acyltransferase component of branched-chain alpha-keto acid dehydrogenase complex, mitochondrial D204G, P11182  -0.806 ± 0.042
38. Lipoamide acyltransferase component of branched-chain alpha-keto acid dehydrogenase complex, mitochondrial D204S, P11182  -0.83 ± 0.068
39. Lipoamide acyltransferase component of branched-chain alpha-keto acid dehydrogenase complex, mitochondrial D204Q, P11182  -0.932 ± 0.062
40. Lipoamide acyltransferase component of branched-chain alpha-keto acid dehydrogenase complex, mitochondrial D204H, P11182  -0.946 ± 0.16
41. Lipoamide acyltransferase component of branched-chain alpha-keto acid dehydrogenase complex, mitochondrial E190P, P11182  -0.963 ± 0.081
42. Lipoamide acyltransferase component of branched-chain alpha-keto acid dehydrogenase complex, mitochondrial D204T, P11182  -0.973 ± 0.064
43. Lipoamide acyltransferase component of branched-chain alpha-keto acid dehydrogenase complex, mitochondrial D204R, P11182  -1.07 ± 0.047
44. Lipoamide acyltransferase component of branched-chain alpha-keto acid dehydrogenase complex, mitochondrial D204V, P11182  -1.1 ± 0.072
45. Lipoamide acyltransferase component of branched-chain alpha-keto acid dehydrogenase complex, mitochondrial D204A, P11182  -1.24 ± 0.064
46. Lipoamide acyltransferase component of branched-chain alpha-keto acid dehydrogenase complex, mitochondrial D204L, P11182  -1.26 ± 0.1
47. Lipoamide acyltransferase component of branched-chain alpha-keto acid dehydrogenase complex, mitochondrial D204C, P11182  -1.27 ± 0.098
48. Lipoamide acyltransferase component of branched-chain alpha-keto acid dehydrogenase complex, mitochondrial D204M, P11182  -1.35 ± 0.11
